We go through 14 variants from the supplement of paper PMC12338614.

± gives the uncertainty stated by the source.

First the molecules themselves.
B1: library; numbered along this chain (parent)
chain: MEVVDPQQLGMFTEGELMSVGMDTFIHRIDSTEVIYQPRRKRAKLIGKYLMGDLLGEGSYGKVKEVLDSETLCRRAVKILKKKKLRRIPNGEANVKKEIQLLRRLRHKNVIQLVDVLYNEEKQKMYMVMEYCVCGMQEMLDSVPEKRFPVCQAHGYFCQLIDGLEYLHSQGIVHKDIKPGNLLLTTGGTLKISDLGVAEALHPFAADDTCRTSQGSPAFQPPEIANGLDTFSGFKVDIWSAGVTLYNITTGLYPFEGDNIYKLFENIGKGSYAIPGDCGPPLSDLLKGMLEYEPAKRFSIRQIRQHSWFRKKHPPAEAPVPIPPSPDTKDRWRSMTVVPYLEDLHGADEDEDLFDIEDDIIYTQDFTVPGQVPEEEASHNGQRRGLPKAVCMNGTEAAQLSTKSRAEGRAPNPARKACSASSKIRRLSACKQQ

Variants of B1 are the subject of the data set. The experiment in a line: STK11 functional score (HeLa growth suppression), rescaled enrichment; synonymous median = 1, nonsense median = 0 (normalised score). The conditions noted are these: with HeLa; variant type: missense. The gist of the method: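 Functional scores are post/pre-selection log ratios corrected to wild type, rescaled to synonymous and nonsense medians, merged over codons and replicate transfections, and given bootstrapped error. They come from POPCode libraries of codon-optimised STK11 integrated by Bxb1 at an AAVS1 landing pad in HeLa, three regions each transfected three times, with BFP-negative, mCherry-positive integrants sorted by FACS and tiled gDNA amplicons sequenced on NextSeq.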
For the variant MEVVDPQQLGMFTEGELMSVGMDTFIHRIDSTEVIYQPRRKRAKLIGKYLMGDLLGEGSYGKVKEVLDSETLCRRAVKILKKKKLRRIPNGEANVKKEIQLLRRLRHKNVIQLVDVLYNEEKQKMYMVMEYCVCGMQEMLDSVPEKRFPVCQAHGYFCQLIDGLEYLHSQGIVHKDIKPGNLLLTTGGTLKISDLGVAEALHPFAADDTCRTSQGSPAFQPPEIANGLDTFSGFKVDIWSAGVTLYNITTGLYPFEGDNIYKLFENIGKGSYAIPGDCGPPLSDLLKGMLEYEPAKRFSIRQIRQHSWFRKKHPPAEAPVPIPPSPDTKDRWRSMTVVPYLEDLHGADEDEDLFDIEDDIIYTQDFTVPGQVPEEEASHNGQRRGLPKAVCMNGTEAAQLSTKSRAEGRAANPARKACSASSKIRRLSACKQQ [P411A], the STK11 functional score was found to be 1.04 ± 0.31.
Under MEVVDPQQLGMFTEGELMSVGMDTFIHRIDSTEVIYQPRRKRAKLIGKYLMGDLLGEGSYGKVKEVLDSETLCRRAVKILKKKKLRRIPNGEANVKKEIQLLRRLRHKNVIQLVDVLYNEEKQKMYMVMEYCVCGMQEMLDSVPEKRFPVCQAHGYFCQLIDGLEYLHSQGIVHKDIKPGNLLLTTGGTLKISDLGVAEALHPFAADDTCRTSQGSPAFQPPEIANGLDTFSGFKVDIWSAGVTLYNITTGLYPFEGDNIYKLFENIGKGSYAIPGDCGPPLSDLLKGMLEYEPAKRFSIRQIRQHSWFRKKHPPAEAPVPIPPSPDTKDRWRSMTVVPYLEDLHGADEDEDLFDIEDDIIYTQDFTVPGQVPEEEASHNGQRRGLPKAVCMNGTEAAQLSTKSRAEGRADNPARKACSASSKIRRLSACKQQ [P411D] stands 1.59 ± 0.15.
Under MEVVDPQQLGMFTEGELMSVGMDTFIHRIDSTEVIYQPRRKRAKLIGKYLMGDLLGEGSYGKVKEVLDSETLCRRAVKILKKKKLRRIPNGEANVKKEIQLLRRLRHKNVIQLVDVLYNEEKQKMYMVMEYCVCGMQEMLDSVPEKRFPVCQAHGYFCQLIDGLEYLHSQGIVHKDIKPGNLLLTTGGTLKISDLGVAEALHPFAADDTCRTSQGSPAFQPPEIANGLDTFSGFKVDIWSAGVTLYNITTGLYPFEGDNIYKLFENIGKGSYAIPGDCGPPLSDLLKGMLEYEPAKRFSIRQIRQHSWFRKKHPPAEAPVPIPPSPDTKDRWRSMTVVPYLEDLHGADEDEDLFDIEDDIIYTQDFTVPGQVPEEEASHNGQRRGLPKAVCMNGTEAAQLSTKSRAEGRAENPARKACSASSKIRRLSACKQQ [P411E] stands 1.61 ± 0.33.
Under MEVVDPQQLGMFTEGELMSVGMDTFIHRIDSTEVIYQPRRKRAKLIGKYLMGDLLGEGSYGKVKEVLDSETLCRRAVKILKKKKLRRIPNGEANVKKEIQLLRRLRHKNVIQLVDVLYNEEKQKMYMVMEYCVCGMQEMLDSVPEKRFPVCQAHGYFCQLIDGLEYLHSQGIVHKDIKPGNLLLTTGGTLKISDLGVAEALHPFAADDTCRTSQGSPAFQPPEIANGLDTFSGFKVDIWSAGVTLYNITTGLYPFEGDNIYKLFENIGKGSYAIPGDCGPPLSDLLKGMLEYEPAKRFSIRQIRQHSWFRKKHPPAEAPVPIPPSPDTKDRWRSMTVVPYLEDLHGADEDEDLFDIEDDIIYTQDFTVPGQVPEEEASHNGQRRGLPKAVCMNGTEAAQLSTKSRAEGRSPNPARKACSASSKIRRLSACKQQ [A410S] stands 1.4 ± 0.26.
In the case of MEVVDPQQLGMFTEGELMSVGMDTFIHRIDSTEVIYQPRRKRAKLIGKYLMGDLLGEGSYGKVKEVLDSETLCRRAVKILKKKKLRRIPNGEANVKKEIQLLRRLRHKNVIQLVDVLYNEEKQKMYMVMEYCVCGMQEMLDSVPEKRFPVCQAHGYFCQLIDGLEYLHSQGIVHKDIKPGNLLLTTGGTLKISDLGVAEALHPFAADDTCRTSQGSPAFQPPEIANGLDTFSGFKVDIWSAGVTLYNITTGLYPFEGDNIYKLFENIGKGSYAIPGDCGPPLSDLLKGMLEYEPAKRFSIRQIRQHSWFRKKHPPAEAPVPIPPSPDTKDRWRSMTVVPYLEDLHGADEDEDLFDIEDDIIYTQDFTVPGQVPEEEASHNGQRRGLPKAVCMNGTEAAQLSTKSRAEGRRPNPARKACSASSKIRRLSACKQQ [A410R], the STK11 functional score is 1.6 ± 0.14.
In the case of MEVVDPQQLGMFTEGELMSVGMDTFIHRIDSTEVIYQPRRKRAKLIGKYLMGDLLGEGSYGKVKEVLDSETLCRRAVKILKKKKLRRIPNGEANVKKEIQLLRRLRHKNVIQLVDVLYNEEKQKMYMVMEYCVCGMQEMLDSVPEKRFPVCQAHGYFCQLIDGLEYLHSQGIVHKDIKPGNLLLTTGGTLKISDLGVAEALHPFAADDTCRTSQGSPAFQPPEIANGLDTFSGFKVDIWSAGVTLYNITTGLYPFEGDNIYKLFENIGKGSYAIPGDCGPPLSDLLKGMLEYEPAKRFSIRQIRQHSWFRKKHPPAEAPVPIPPSPDTKDRWRSMTVVPYLEDLHGADEDEDLFDIEDDIIYTQDFTVPGQVPEEEASHNGQRRGLPKAVCMNGTEAAQLSTKSRAEGRPPNPARKACSASSKIRRLSACKQQ [A410P], the STK11 functional score worked out at 0.257 ± 0.39.
The same measure for MEVVDPQQLGMFTEGELMSVGMDTFIHRIDSTEVIYQPRRKRAKLIGKYLMGDLLGEGSYGKVKEVLDSETLCRRAVKILKKKKLRRIPNGEANVKKEIQLLRRLRHKNVIQLVDVLYNEEKQKMYMVMEYCVCGMQEMLDSVPEKRFPVCQAHGYFCQLIDGLEYLHSQGIVHKDIKPGNLLLTTGGTLKISDLGVAEALHPFAADDTCRTSQGSPAFQPPEIANGLDTFSGFKVDIWSAGVTLYNITTGLYPFEGDNIYKLFENIGKGSYAIPGDCGPPLSDLLKGMLEYEPAKRFSIRQIRQHSWFRKKHPPAEAPVPIPPSPDTKDRWRSMTVVPYLEDLHGADEDEDLFDIEDDIIYTQDFTVPGQVPEEEASHNGQRRGLPKAVCMNGTEAAQLSTKSRAEGRVPNPARKACSASSKIRRLSACKQQ [A410V]: 1.32 ± 0.21; for MEVVDPQQLGMFTEGELMSVGMDTFIHRIDSTEVIYQPRRKRAKLIGKYLMGDLLGEGSYGKVKEVLDSETLCRRAVKILKKKKLRRIPNGEANVKKEIQLLRRLRHKNVIQLVDVLYNEEKQKMYMVMEYCVCGMQEMLDSVPEKRFPVCQAHGYFCQLIDGLEYLHSQGIVHKDIKPGNLLLTTGGTLKISDLGVAEALHPFAADDTCRTSQGSPAFQPPEIANGLDTFSGFKVDIWSAGVTLYNITTGLYPFEGDNIYKLFENIGKGSYAIPGDCGPPLSDLLKGMLEYEPAKRFSIRQIRQHSWFRKKHPPAEAPVPIPPSPDTKDRWRSMTVVPYLEDLHGADEDEDLFDIEDDIIYTQDFTVPGQVPEEEASHNGQRRGLPKAVCMNGTEAAQLSTKSRAEGRQPNPARKACSASSKIRRLSACKQQ [A410Q]: 1.21 ± 0.37.
Under MEVVDPQQLGMFTEGELMSVGMDTFIHRIDSTEVIYQPRRKRAKLIGKYLMGDLLGEGSYGKVKEVLDSETLCRRAVKILKKKKLRRIPNGEANVKKEIQLLRRLRHKNVIQLVDVLYNEEKQKMYMVMEYCVCGMQEMLDSVPEKRFPVCQAHGYFCQLIDGLEYLHSQGIVHKDIKPGNLLLTTGGTLKISDLGVAEALHPFAADDTCRTSQGSPAFQPPEIANGLDTFSGFKVDIWSAGVTLYNITTGLYPFEGDNIYKLFENIGKGSYAIPGDCGPPLSDLLKGMLEYEPAKRFSIRQIRQHSWFRKKHPPAEAPVPIPPSPDTKDRWRSMTVVPYLEDLHGADEDEDLFDIEDDIIYTQDFTVPGQVPEEEASHNGQRRGLPKAVCMNGTEAAQLSTKSRAEGRLPNPARKACSASSKIRRLSACKQQ [A410L] stands 1.42 ± 0.2; under MEVVDPQQLGMFTEGELMSVGMDTFIHRIDSTEVIYQPRRKRAKLIGKYLMGDLLGEGSYGKVKEVLDSETLCRRAVKILKKKKLRRIPNGEANVKKEIQLLRRLRHKNVIQLVDVLYNEEKQKMYMVMEYCVCGMQEMLDSVPEKRFPVCQAHGYFCQLIDGLEYLHSQGIVHKDIKPGNLLLTTGGTLKISDLGVAEALHPFAADDTCRTSQGSPAFQPPEIANGLDTFSGFKVDIWSAGVTLYNITTGLYPFEGDNIYKLFENIGKGSYAIPGDCGPPLSDLLKGMLEYEPAKRFSIRQIRQHSWFRKKHPPAEAPVPIPPSPDTKDRWRSMTVVPYLEDLHGADEDEDLFDIEDDIIYTQDFTVPGQVPEEEASHNGQRRGLPKAVCMNGTEAAQLSTKSRAEGRNPNPARKACSASSKIRRLSACKQQ [A410N], 1.32 ± 0.11; under MEVVDPQQLGMFTEGELMSVGMDTFIHRIDSTEVIYQPRRKRAKLIGKYLMGDLLGEGSYGKVKEVLDSETLCRRAVKILKKKKLRRIPNGEANVKKEIQLLRRLRHKNVIQLVDVLYNEEKQKMYMVMEYCVCGMQEMLDSVPEKRFPVCQAHGYFCQLIDGLEYLHSQGIVHKDIKPGNLLLTTGGTLKISDLGVAEALHPFAADDTCRTSQGSPAFQPPEIANGLDTFSGFKVDIWSAGVTLYNITTGLYPFEGDNIYKLFENIGKGSYAIPGDCGPPLSDLLKGMLEYEPAKRFSIRQIRQHSWFRKKHPPAEAPVPIPPSPDTKDRWRSMTVVPYLEDLHGADEDEDLFDIEDDIIYTQDFTVPGQVPEEEASHNGQRRGLPKAVCMNGTEAAQLSTKSRAEGRWPNPARKACSASSKIRRLSACKQQ [A410W], 1.68 ± 0.24.
Under MEVVDPQQLGMFTEGELMSVGMDTFIHRIDSTEVIYQPRRKRAKLIGKYLMGDLLGEGSYGKVKEVLDSETLCRRAVKILKKKKLRRIPNGEANVKKEIQLLRRLRHKNVIQLVDVLYNEEKQKMYMVMEYCVCGMQEMLDSVPEKRFPVCQAHGYFCQLIDGLEYLHSQGIVHKDIKPGNLLLTTGGTLKISDLGVAEALHPFAADDTCRTSQGSPAFQPPEIANGLDTFSGFKVDIWSAGVTLYNITTGLYPFEGDNIYKLFENIGKGSYAIPGDCGPPLSDLLKGMLEYEPAKRFSIRQIRQHSWFRKKHPPAEAPVPIPPSPDTKDRWRSMTVVPYLEDLHGADEDEDLFDIEDDIIYTQDFTVPGQVPEEEASHNGQRRGLPKAVCMNGTEAAQLSTKSRAEGRMPNPARKACSASSKIRRLSACKQQ [A410M] stands 0.531 ± 0.42; under MEVVDPQQLGMFTEGELMSVGMDTFIHRIDSTEVIYQPRRKRAKLIGKYLMGDLLGEGSYGKVKEVLDSETLCRRAVKILKKKKLRRIPNGEANVKKEIQLLRRLRHKNVIQLVDVLYNEEKQKMYMVMEYCVCGMQEMLDSVPEKRFPVCQAHGYFCQLIDGLEYLHSQGIVHKDIKPGNLLLTTGGTLKISDLGVAEALHPFAADDTCRTSQGSPAFQPPEIANGLDTFSGFKVDIWSAGVTLYNITTGLYPFEGDNIYKLFENIGKGSYAIPGDCGPPLSDLLKGMLEYEPAKRFSIRQIRQHSWFRKKHPPAEAPVPIPPSPDTKDRWRSMTVVPYLEDLHGADEDEDLFDIEDDIIYTQDFTVPGQVPEEEASHNGQRRGLPKAVCMNGTEAAQLSTKSRAEGRYPNPARKACSASSKIRRLSACKQQ [A410Y], 1.38 ± 0.37; under MEVVDPQQLGMFTEGELMSVGMDTFIHRIDSTEVIYQPRRKRAKLIGKYLMGDLLGEGSYGKVKEVLDSETLCRRAVKILKKKKLRRIPNGEANVKKEIQLLRRLRHKNVIQLVDVLYNEEKQKMYMVMEYCVCGMQEMLDSVPEKRFPVCQAHGYFCQLIDGLEYLHSQGIVHKDIKPGNLLLTTGGTLKISDLGVAEALHPFAADDTCRTSQGSPAFQPPEIANGLDTFSGFKVDIWSAGVTLYNITTGLYPFEGDNIYKLFENIGKGSYAIPGDCGPPLSDLLKGMLEYEPAKRFSIRQIRQHSWFRKKHPPAEAPVPIPPSPDTKDRWRSMTVVPYLEDLHGADEDEDLFDIEDDIIYTQDFTVPGQVPEEEASHNGQRRGLPKAVCMNGTEAAQLSTKSRAEGRTPNPARKACSASSKIRRLSACKQQ [A410T], 0.749 ± 0.21.
